Data on 132 substances can be found in patent publication US20250011363A1, “OPTIMIZED SHORTENED PEPTIDE THAT BINDS TO ACETYLCHOLINE RECEPTOR, AND USE THEREOF” (SKINMED CO., LTD., priority 2021, published 2025).

The target of the test is acetylcholine receptor (Homo sapiens, UniProt P02708). The experiment in a line: SPR binding affinity (RU) of optimized 5mer/6mer/7mer peptides, Examples 6-7. The settings on record: SPR, peptides tested at 10 μM; 6mer-1 Top sequence. An outline of the steps: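 600 peptides per series (5mer, 6mer-1, 6mer-2), made from high- or low-frequency amino acid combinations, are screened by SPR at 10 μM; binding is recorded in RU.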
Sequence of acetylcholine receptor (P02708 21-457): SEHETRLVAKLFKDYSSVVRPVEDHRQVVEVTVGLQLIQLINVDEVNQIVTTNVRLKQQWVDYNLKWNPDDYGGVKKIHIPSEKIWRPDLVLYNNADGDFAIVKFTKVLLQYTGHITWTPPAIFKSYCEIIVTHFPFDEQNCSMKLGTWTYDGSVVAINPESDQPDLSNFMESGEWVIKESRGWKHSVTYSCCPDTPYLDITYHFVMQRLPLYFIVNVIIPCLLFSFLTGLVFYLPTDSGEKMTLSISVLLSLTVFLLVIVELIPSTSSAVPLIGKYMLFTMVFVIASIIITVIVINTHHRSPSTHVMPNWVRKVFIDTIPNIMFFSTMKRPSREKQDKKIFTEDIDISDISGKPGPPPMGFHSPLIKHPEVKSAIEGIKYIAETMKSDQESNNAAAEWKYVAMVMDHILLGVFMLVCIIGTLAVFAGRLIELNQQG
For orientation: Surface plasmon resonance follows binding to a sensor surface in real time, without labels.

Consider 6mer-1-462 (RKQILK), for which the Binding affinity was 126 Ru.
In the case of 6mer-1-463 (KRSFRK), the Binding affinity was determined as 153 Ru.
The figure for 6mer-1-464 (RRQRLK) is 131 Ru; for 6mer-1-465 (RKQVYK) it is 154 Ru; for 6mer-1-466 (KRSICR) it is 148 Ru.
The figure for 6mer-1-467 (KRGYQK) is 121 Ru; for 6mer-1-468 (RRLYRR) it is 153 Ru.
The figure for 6mer-1-469 (KKLIYR) is 139 Ru; for 6mer-1-470 (KKWVYR) it is 148 Ru; for 6mer-1-471 (KKWRCK) it is 123 Ru.
6mer-1-472 (KRQRCK): the Binding affinity came to 142 Ru.
The figure for 6mer-1-473 (KKVLSK) is 154 Ru; for 6mer-1-474 (KRLFSK) it is 121 Ru; for 6mer-1-475 (RKLQTK) it is 148 Ru.
As to 6mer-1-476 (KRRRQK), the Binding affinity turned out to be 154 Ru.
6mer-1-477 (KRQQTK): the Binding affinity is 145 Ru.
The figure for 6mer-1-478 (RKVRYK) is 139 Ru.
The figure for 6mer-1-479 (RRSLTR) is 135 Ru; for 6mer-1-480 (KKQFYK) it is 121 Ru; for 6mer-1-481 (KRWRCK) it is 133 Ru.
The figure for 6mer-1-482 (RKQVRK) is 133 Ru; for 6mer-1-483 (KRQVTK) it is 151 Ru; for 6mer-1-484 (KKLYLR) it is 154 Ru.
In the case of 6mer-1-485 (RRWYRR), the Binding affinity came out at 126 Ru.
The figure for 6mer-1-486 (KRQVRK) is 151 Ru.
The figure for 6mer-1-487 (RKGRRK) is 121 Ru.
The figure for 6mer-1-488 (KKWYSK) is 135 Ru; for 6mer-1-489 (KKVITK) it is 148 Ru; for 6mer-1-490 (KKLFRR) it is 133 Ru.
On to 6mer-1-491 (RKLRLR), for which the Binding affinity was determined as 137 Ru.
The figure for 6mer-1-492 (RRWRQK) is 139 Ru; for 6mer-1-493 (KRGYLR) it is 131 Ru; for 6mer-1-494 (KKLFSR) it is 128 Ru.
Turning to 6mer-1-495 (RKGFQR), the Binding affinity amounted to 126 Ru.
The figure for 6mer-1-496 (RRVYQR) is 148 Ru; for 6mer-1-497 (KRRQLR) it is 133 Ru.
The figure for 6mer-1-498 (RKRQQK) is 139 Ru.
The figure for 6mer-1-499 (RKLFYR) is 149 Ru; for 6mer-1-500 (RKLQSK) it is 151 Ru.
Take 6mer-1-501 (KRVLYK): the Binding affinity was 154 Ru.
For 6mer-1-502 (RKLFSR), the Binding affinity came to 146 Ru.
The figure for 6mer-1-503 (KRRLCK) is 151 Ru; for 6mer-1-504 (RRSITR) it is 122 Ru; for 6mer-1-505 (RRRFTR) it is 148 Ru.
The figure for 6mer-1-506 (RRRLSK) is 151 Ru.
Consider 6mer-1-507 (RRSQSK), for which the Binding affinity is 139 Ru.
Take 6mer-1-508 (RRQFSK): the Binding affinity came out at 135 Ru.
The figure for 6mer-1-509 (RKWLRK) is 128 Ru; for 6mer-1-510 (KRRQSR) it is 122 Ru; for 6mer-1-511 (RKVYRR) it is 136 Ru.
The figure for 6mer-1-512 (RKWICK) is 154 Ru.
Consider 6mer-1-513 (RKQIRR), for which the Binding affinity is 154 Ru.
The figure for 6mer-1-514 (KKGRSK) is 128 Ru; for 6mer-1-515 (RRGLSR) it is 139 Ru.
The figure for 6mer-1-516 (KKRFSR) is 139 Ru; for 6mer-1-517 (KKGLCK) it is 139 Ru; for 6mer-1-518 (KRWVLK) it is 153 Ru.
The figure for 6mer-1-519 (KRRQCK) is 147 Ru; for 6mer-1-520 (KRQIYK) it is 127 Ru.
6mer-1-521 (RKVISR): the Binding affinity was 128 Ru.
Consider 6mer-1-522 (RKRRLR), for which the Binding affinity worked out at 126 Ru.
With 6mer-1-523 (KRRRSK), the Binding affinity was determined as 139 Ru.
The figure for 6mer-1-524 (KKGRQK) is 148 Ru.
The figure for 6mer-1-525 (RRQLRR) is 139 Ru; for 6mer-1-526 (KRGYTR) it is 148 Ru.
Consider 6mer-1-527 (KKGIYR), for which the Binding affinity is on record as 142 Ru.
In the case of 6mer-1-528 (KRSYTR), the Binding affinity was determined as 139 Ru.
The figure for 6mer-1-529 (RRSLCK) is 139 Ru.
The figure for 6mer-1-530 (KRLVSK) is 137 Ru; for 6mer-1-531 (RKGQTK) it is 135 Ru; for 6mer-1-532 (KKSQLR) it is 121 Ru.
Turning to 6mer-1-533 (RKWFSR), the Binding affinity was determined as 145 Ru.
On to 6mer-1-534 (KKRLCR), for which the Binding affinity is 126 Ru.
The figure for 6mer-1-535 (RRVILK) is 139 Ru; for 6mer-1-536 (RRWFRK) it is 151 Ru; for 6mer-1-537 (RRGLCK) it is 154 Ru.
The figure for 6mer-1-538 (RRSQCK) is 142 Ru; for 6mer-1-539 (KRGIRK) it is 148 Ru; for 6mer-1-540 (KRVQTR) it is 128 Ru.
The figure for 6mer-1-541 (RKWFTR) is 136 Ru; for 6mer-1-542 (KRWFRR) it is 128 Ru; for 6mer-1-543 (RRSVCK) it is 145 Ru.
In the case of 6mer-1-544 (KRVICR), the Binding affinity amounted to 149 Ru.
The figure for 6mer-1-545 (RRSYRK) is 127 Ru; for 6mer-1-546 (RKLVQR) it is 123 Ru.
The figure for 6mer-1-547 (RKVQQR) is 148 Ru; for 6mer-1-548 (RRVYSR) it is 123 Ru.
The figure for 6mer-1-549 (KKSYQR) is 142 Ru; for 6mer-1-550 (RRLICR) it is 148 Ru; for 6mer-1-551 (KRGRLR) it is 142 Ru.
In the case of 6mer-1-552 (RKRYRK), the Binding affinity is 144 Ru.
Take 6mer-1-553 (RRGVRK): the Binding affinity was 128 Ru.
The figure for 6mer-1-554 (KRSVTR) is 131 Ru; for 6mer-1-555 (KKWYLK) it is 128 Ru; for 6mer-1-556 (KKGFTK) it is 145 Ru.
The figure for 6mer-1-557 (KRQVQK) is 128 Ru.
The figure for 6mer-1-558 (RRLIQR) is 139 Ru; for 6mer-1-559 (RRRLTK) it is 139 Ru; for 6mer-1-560 (RRSFSK) it is 127 Ru.
6mer-1-561 (RKVYLK): the Binding affinity is given as 131 Ru.
The figure for 6mer-1-562 (KRSYQR) is 148 Ru; for 6mer-1-563 (RRSFTR) it is 139 Ru; for 6mer-1-564 (KRSITK) it is 139 Ru.
The figure for 6mer-1-565 (KRSIRR) is 151 Ru.
The figure for 6mer-1-566 (KKSFCR) is 148 Ru; for 6mer-1-567 (KKRVSR) it is 136 Ru; for 6mer-1-568 (KRWQQK) it is 147 Ru.
With 6mer-1-569 (RRVITK), the Binding affinity was determined as 148 Ru.
The figure for 6mer-1-570 (RKRLRK) is 122 Ru; for 6mer-1-571 (RKLLCK) it is 154 Ru; for 6mer-1-572 (KRVLLK) it is 126 Ru.
The figure for 6mer-1-573 (KRVLLR) is 126 Ru; for 6mer-1-574 (RKSYLR) it is 148 Ru; for 6mer-1-575 (KRWVRR) it is 148 Ru.
The figure for 6mer-1-576 (RKRQRR) is 153 Ru; for 6mer-1-577 (KKQYQR) it is 128 Ru; for 6mer-1-578 (RKGQYK) it is 139 Ru.
As to 6mer-1-579 (KRSVRK), the Binding affinity is 148 Ru.
The figure for 6mer-1-580 (KKSLQK) is 121 Ru; for 6mer-1-581 (KRGLYK) it is 139 Ru.
The figure for 6mer-1-582 (KRWFLK) is 137 Ru.
Consider 6mer-1-583 (KKVLYK), for which the Binding affinity is recorded as 139 Ru.
The figure for 6mer-1-584 (RKQVSK) is 127 Ru.
The figure for 6mer-1-585 (RKSRQK) is 144 Ru; for 6mer-1-586 (KRVICK) it is 136 Ru; for 6mer-1-587 (KKQLLK) it is 148 Ru.
The figure for 6mer-1-588 (RRLVRK) is 153 Ru; for 6mer-1-589 (KKLQQK) it is 139 Ru.
Consider 6mer-1-590 (RKGVTK), for which the Binding affinity came to 142 Ru.
Turning to 6mer-1-591 (KKRLYR), the Binding affinity was 147 Ru.
The figure for 6mer-1-592 (RRWLSK) is 135 Ru.
As for 6mer-1-593 (RKVYRK), the Binding affinity is listed as 148 Ru.
